Reference: article PMC8261802

Assays:
[1] = target: PEDV/S(1–1320) + CMP + Tags (porcine epidemic diarrhea virus (PEDV), strain 83P-5 | chicken); assay: SEC; Superose 6 increase 10/300 GL in 1 x PBS; markers thyroglobulin 669 kDa, ferritin 440 kDa, aldolase 158 kDa
[2] = target: PEDV/S(1–1320) + CMP + Tags (porcine epidemic diarrhea virus (PEDV), strain 83P-5 | chicken); assay: native gel or EMSA; Blue-native PAGE, 3 to 12% Bis-Tris NativePAGE gel, 115 min at 150 V, CBB stain; purified S protein

PEDV/S(1–1320) + CMP + Tags
stoichiometry N [1]: 3
stoichiometry N [2]: 3
